Experimental data from US20260139030A1.

Target: TNFα (Examples 10 and 11)
Test: cell-based or functional assay

Substance | SEAP activity (NFκB/AP-1 reporter) in HEK-Blue Dectin2 cells, reduction against TNFα plus irrelevant protein [fold]
TNFR2-Fc-Clec7a chimeric protein (Examples 10 and 11) (Fc fusion; the values are: fold reduction in SEAP activity) | 4
TNFR2-Fc-Dectin2 chimeric protein (Examples 10 and 11) (Fc fusion; the values are: fold reduction in SEAP activity) | > 20
